Results taken from publication PMC11373624, “Development and preclinical characterization of a novel radiotheranostic EphA2-targeting bicyclic peptide” (Theranostics, 2024).
Numbered stars: 1 amine (or outer) side, 2 acyl side, 3 side chain; on linkers, the order of the positions; unused ones are H or OH. Bridge positions count the residues as written; N and C are the ends. Square brackets hold non-standard residues; d marks the D form. Peptide text beside a SMILES is read from it. * marks the point of attachment. DOTA = O=C(O)CN1CCN(CC(=O)O)CCN(CC(=O)*)CCN(CC(=O)O)CC1; TATA = O=C(CC[*:1])N1CN(C(=O)CC[*:2])CN(C(=O)CC[*:3])C1; Hyp = O=C(O)[C@@H]1C[C@@H](O)CN1; hArg = N=C(N)NCCCC[C@H](N)C(=O)O; Cba = N[C@@H](CC1CCC1)C(=O)O; βAla = NCCC(=O)O; Sar = CNCC(=O)O

Legend:
[1] = tested on: PC-3 tumor xenograft; assay: in vivo; conditions: male, athymic nude, mouse
Protocol: (§1) SPECT/CT imaging was performed in three 5- to 8-week-old male athymic nude mice (Janvier Labs, UK) which were subcutaneously inoculated on the right upper flank with 5 x 10^6 PC-3 cells (1:1 in PBS:Matrigel). Tumor growth was monitored, and once size was approx. 200 - 500 mm^3, mice were injected intravenously via tail vein with 230 pmol of [^111In]In-BCY18469 (5.3 ± 0.2 MBq). Mice were imaged under isoflurane anesthesia using whole-body static SPECT followed by a CT at each timepoint (30 min SPECT scan time starting at 1h and 24h p.i.). Reconstructed images were generated in units of activity. Namely, the values assigned to the voxels (volume elements) comprising the 3D reconstructed SPECT images were in units of MBq or equivalent. Reconstructed images were processed with VivoQuant (Invicro). Whole body maximum intensity projection (MIP) images were generated using VivoQuant.

[2] = in vivo; conditions: male, athymic nude, mouse
Protocol: as §1

[3] = in vitro; format: in vitro ADME; conditions: human, plasma, plasma protein binding
Protocol: To determine binding to plasma proteins, BCY18469 was labeled with ^68Ga (apparent molar activity 1 GBq/µmol). Thereafter, 10 µL of the labeling mixture were added to 100 µL of mouse or human plasma (mouse: BioIVT, United Kingdom, human: Sigma Aldrich, Germany). The mixture was left for 15 min at room temperature. Afterwards, the plasma was loaded into an ultrafiltration device (Amicon Ultra 0.5ml - 30 kDa, Merck, Germany) and centrifuged at 14,000 rpm for 30 min at r.t. The filtrate and the membrane were measured in a gamma counter (Wizard2, Perkin Elmer, Germany). The amount of plasma-bound compound was calculated based on the counts in the […] relative to the total counts (filtrate + membrane).

[4] = in vitro; format: in vitro ADME; conditions: plasma
Protocol: Determination of stability in plasma was performed with the ^177Lu-labeled peptide. 10 µL of the labeled compound were added into human or mouse plasma (mouse: BioIVT, United Kingdom, human: Sigma Aldrich, Germany) and incubated at 37 °C. Aliquots were taken at different time points during incubation (1, 6, 24, 48 and 72 h) to which acetonitrile (30 μL) was added in order to precipitate plasma proteins. After centrifugation at 13,000 rpm for 5 min at r.t. the supernatant was taken and analyzed via HPLC.

[5] = tested on: HT1080 cells; assay: Cell surface binding and internalization assay; format: cell-based, human; conditions: listed as 68Ga-BCY18469
Protocol: To assess internalization and specificity, HT1080 cells (10^5 cells/well) were seeded in a 24-well plate coated with poly-L-lysine one day before the experiment. […] To determine specific uptake, 'cold' (non-radiolabeled) BCY18469 was added to half of the wells at an excess concentration of 10 µM/well or, alternatively, the cells were kept at 4 °C during the experiment. Following the incubation, the cells were thoroughly rinsed with cold PBS (3 x 1 mL). Subsequently, surface bound radioactivity was removed by washing with 50 mM glycine (pH 2.8, 2 x 500 µL). Finally, the internalized fraction was determined by lysing the cells with 0.5 M NaOH (500 µL). All fractions were collected and measured using a gamma counter (Perkin Elmer Wizard2, Germany). All counts were standardized to the initial activity, and specific surface binding as well as specific internalization were calculated by subtracting the non-specific binding values obtained from the wells treated with an excess of 'cold' compound. Results were calculated and expressed as %AA/10^5 cells (% applied activity/10^5 cells).

[6] = in vivo; conditions: female, BALC/c nu/nu, mouse, iv, 150 pmol, total radioactivity
Protocol: (§2) PET/MR imaging was performed in 8-week-old female BALC/c nu/nu mice (Charles River, Germany) which were subcutaneously inoculated on the right upper flank with 10^6 cells (1:1 in PBS:Matrigel). Tumor growth was monitored, and once size was approx. 300-500 mm^3, 150 pmol of [^68Ga]Ga-BCY18469 (4 - 9 MBq) was injected intravenously via tail vein with subsequent imaging performed under isoflurane anesthesia. For the PET imaging experiments with blocking, an excess (15 nmol) of non-radiolabeled BCY18469 was injected 5 mins before the injection of 300 pmol (4 MBq) of the ^68Ga-labeled compound. PET imaging consisted of a dynamic scan from 0 to 60 min p.i. (30 frames), followed by non-triggered localizer and a 3-step whole body T1-weighed 3D MR-scan (PET/MR 3T, Bruker BioSpin, Germany). Additionally, a 2 h p.i. static image (10 min scan) was recorded, followed by the same MR scan protocol. Data was obtained via ParaVision 3.0 and reconstructed using a Maximum-Likelihood Expectation-Maximization (MLEM) algorithm at 0.5 mm for 18 iterations. Reconstructed data was analyzed with PMOD 3.7.

[7] = tested on: MCF-7 tumor xenograft; conditions: mouse, in vivo
Protocol: as §2

[8] = total radioactivity, Liver uptake
[9] = 4°C, block with 10 µM non-labeled compound

Structure (SMILES): CC(C)C[C@@H]1NC(=O)[C@@H]2CSCCC(=O)N3CN(CN(C3)C(=O)CCSC[C@H](NC(=O)[C@H](CC(=O)O)NC(=O)[C@H](CCCCNC(=N)N)NC(=O)[C@H](C)NC(=O)CN(C)C(=O)CN(C)C(=O)CN(C)C(=O)CN(C)C(=O)CN(C)C(=O)CN(C)C(=O)CN(C)C(=O)CN(C)C(=O)CN(C)C(=O)CN(C)C(=O)CCNC(=O)CN3CCN(CC(=O)O)CCN(CC(=O)O)CCN(CC(=O)O)CC3)C(=O)N3C[C@H](O)C[C@H]3C(=O)N[C@@H](CC3CCC3)C(=O)N[C@@H](C(C)C)C(=O)N[C@@H](CC(N)=O)C(=O)N3CCC[C@H]3C(=O)N[C@@H](CC(C)C)C(=O)N2)C(=O)CCSC[C@@H](C(N)=O)NC(=O)[C@H](CCCCNC(=N)N)NC(=O)[C@H](Cc2c[nH]c3ccccc23)NC(=O)[C@@H](CC(=O)O)NC(=O)[C@@H]2CCCN2C(=O)[C@H](Cc2c[nH]cn2)NC1=O [[111In]In-BCY18469, metal not drawn] ({DOTA-βAla}-[Sar][Sar][Sar][Sar][Sar][Sar][Sar][Sar][Sar][Sar]A[hArg]DC[Hyp][Cba]VNPLCLHP[dD]W[hArg]C-NH2; linker 14-21-28 via TATA)
- Kidneys uptake ([1]; 1 h): 31.9 ± 3.4 %ID/g
- Tumor uptake ([1]; 1 h): 5.72 ± 1.47 %ID/g
- Tumor uptake ([1]; 24 h): 2.32 ± 0.50 %ID/g
- tissue uptake at 1 h ([2]; Bladder uptake): 207 %ID/g
- tissue uptake at 24 h ([2]; Bladder uptake): 4.2 %ID/g
- tissue uptake at 1 h ([2]; Heart uptake): 0.03 %ID/g
- tissue uptake at 24 h ([2]; Heart uptake): 0.03 %ID/g
- tissue uptake at 1 h ([2]; Kidneys uptake): 32 %ID/g
- tissue uptake at 24 h ([2]; Kidneys uptake): 17 %ID/g
- tissue uptake at 24 h ([2]; Lungs uptake): 0.01 %ID/g
- tissue uptake at 1 h ([2]; Muscle uptake): 0.27 %ID/g
- tissue uptake at 24 h ([2]; Muscle uptake): 0.02 %ID/g
- tissue uptake at 1 h ([2]; Spleen uptake): 0.27 %ID/g
- tissue uptake at 24 h ([2]; Spleen uptake): 0.4 %ID/g
- tissue uptake at 1 h ([2]; Tail uptake): 0.28 %ID/g
- tissue uptake at 24 h ([2]; Tail uptake): 0.07 %ID/g
- tissue uptake at 24 h ([2]; Tumor uptake): 2.3 %ID/g
- tissue uptake at 1 h [2, 8]: 0.13 %ID/g
- tissue uptake at 24 h [2, 8]: 0.05 %ID/g
- tissue uptake at 1 h ([2]; total radioactivity, Lungs uptake): 0.12 %ID/g
- tissue uptake ([2]; total radioactivity, Non-target organs uptake): ≤ 1 %ID/g
- tissue uptake at 1 h ([2]; total radioactivity, Tumor uptake): 5.7 ± 1.5 %ID/g

Structure (SMILES): CC(C)C[C@@H]1NC(=O)[C@@H]2CSCCC(=O)N3CN(CN(C3)C(=O)CCSC[C@H](NC(=O)[C@H](CC(=O)O)NC(=O)[C@H](CCCCNC(=N)N)NC(=O)[C@H](C)NC(=O)CN(C)C(=O)CN(C)C(=O)CN(C)C(=O)CN(C)C(=O)CN(C)C(=O)CN(C)C(=O)CN(C)C(=O)CN(C)C(=O)CN(C)C(=O)CN(C)C(=O)CCNC(=O)CN3CCN(CC(=O)O)CCN(CC(=O)O)CCN(CC(=O)O)CC3)C(=O)N3C[C@H](O)C[C@H]3C(=O)N[C@@H](CC3CCC3)C(=O)N[C@@H](C(C)C)C(=O)N[C@@H](CC(N)=O)C(=O)N3CCC[C@H]3C(=O)N[C@@H](CC(C)C)C(=O)N2)C(=O)CCSC[C@@H](C(N)=O)NC(=O)[C@H](CCCCNC(=N)N)NC(=O)[C@H](Cc2c[nH]c3ccccc23)NC(=O)[C@@H](CC(=O)O)NC(=O)[C@@H]2CCCN2C(=O)[C@H](Cc2c[nH]cn2)NC1=O [[68Ga]Ga-BCY18469, metal not drawn] ({DOTA-βAla}-[Sar][Sar][Sar][Sar][Sar][Sar][Sar][Sar][Sar][Sar]A[hArg]DC[Hyp][Cba]VNPLCLHP[dD]W[hArg]C-NH2; linker 14-21-28 via TATA)
- fraction unbound at 15 min [3]: ~0.5
- remaining at 72 h ([4]; human): 94%
- remaining at 72 h ([4]; mouse): 40%
- Cell Surface B 4°C [5, 9]: 0.03 ± 0.01 %AA/10^5 cells
- Internalization B 4°C [5, 9]: 0.01 ± 0.00 %AA/10^5 cells
- Cell Surface 4°C ([5]; 4°C): 0.47 ± 0.01 %AA/10^5 cells
- Internalization 4°C ([5]; 4°C): 0.05 ± 0.01 %AA/10^5 cells
- Cell Surface ([5]; 37°C, 45 min, 30 nM): 0.53 ± 0.03 %AA/10^5 cells
- Internalization ([5]; 37°C, 45 min, 30 nM): 0.18 ± 0.05 %AA/10^5 cells
- Internalization B ([5]; 37°C, block with 10 µM non-labeled compound): 0.06 ± 0.00 %AA/10^5 cells
- SUV ([6]; Bladder uptake): 0.41 SUV
- SUV ([6]; Kidneys uptake): 3.15 SUV
- SUV ([6]; Liver uptake): 1.13 SUV
- SUV at 1 h ([6]; Tumor SUVbw): 1.7 SUV
- SUV at 2 h ([6]; Tumor SUVbw): 1.2 SUV
- SUV ([6]; Tumor uptake): 0.67 SUV
- uptake in the tumor [7]: no uptake
